From article PMC11665613 (2024)

How the values were obtained:
Experiment in all cases: MST
[1] = target: NCP3, nucleosome core particle with 3xFLAG-H3Kc36me3 (X. laevis | , Kc36me3 (trimethyllysine mimic on cysteine at position 36))
[2] = target: NCP2, nucleosome core particle with 3xFLAG-H3K36NleCTMS (X. laevis | , cysteine at position 36 alkylated with vinyl cyclic sulfonium 5 (NleCTMS))
[3] = target: NCP1, nucleosome core particle with 3xFLAG-H3K36NleCS+me2 (X. laevis | , cysteine at position 36 alkylated with vinyl dimethylsulfonium 4 (NleCS+me2))

Row | Binder | Kd [1] [nM] | Kd [2] [nM] | Kd [3] [nM]
1 | PWWP domain of NSD2 (domain or fragment) VGDLVWSKVSGYPWWPCMVSADPLLHSYTKLKGQKKSARQYHVQFFGDAPERAWIFEKSLVAFEG | 1400 | 1600 | 1100
2 | PWWP domain of LEDGF (domain or fragment) not shown | 1400 | 1200 | 520
